Data reported in patent publication US20220169693A1, “Screening Assays, Modulators and Modulation of Intracellular Signalling Mediated by Immunoglobulin Superfamily Cell Adhesion Molecules” (Monash University, priority 2018, published 2022).

What was measured:
[1] = biological target: T1, Rluc8-labelled CADM4 (CADM4/Rluc8) (UniProt Q8NFZ8 21-388); test: Receptor-HIT BRET: CADM4/Rluc8 + β-arrestin2/Venus ± untagged AT1, after AngII
T1 construct: whole, on cells; not shown: Rluc8, a variant of Renilla luciferase
T1 sequence (looked up): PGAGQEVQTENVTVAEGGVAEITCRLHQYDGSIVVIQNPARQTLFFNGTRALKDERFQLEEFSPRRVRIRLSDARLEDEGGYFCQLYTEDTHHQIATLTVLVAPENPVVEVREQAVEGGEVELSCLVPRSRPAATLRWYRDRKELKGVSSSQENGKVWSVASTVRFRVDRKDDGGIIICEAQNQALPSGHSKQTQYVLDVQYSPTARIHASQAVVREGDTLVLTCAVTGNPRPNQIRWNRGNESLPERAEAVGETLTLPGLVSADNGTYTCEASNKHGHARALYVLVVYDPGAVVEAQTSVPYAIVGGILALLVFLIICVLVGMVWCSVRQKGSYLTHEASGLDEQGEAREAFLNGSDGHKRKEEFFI
Protocol: (§1) The BRET ratio was calculated by subtracting the ratio of ‘acceptor emission’ over ‘donor emission’ for a cell sample expressing Rluc8-tagged protein alone from the same ratio for a cell sample expressing both Rluc8 and Venus-tagged proteins. Alternatively, the ligand-induced BRET signal was calculated by subtracting the ratio of ‘acceptor emission’ over ‘donor emission’ for a vehicle-treated cell sample from the same ratio for a second aliquot of the same cells treated with agonist.
(§2) GPCRs untagged with respect to the BRET system were then co-expressed in the HEK293FT cells, or the cells were transfected with pcDNA3 as a control. […] A ligand-induced BRET signal was indicative of recruitment of the BRET-tagged β-arrestin2 proximal to the BRET-tagged CAM, thereby indicating close proximity between the CAM and the activated GPCR.

[2] = biological target: T2, Venus-labelled mouse ALCAM (ALCAM/Venus) (mouse, UniProt Q61490 28-583); test: Receptor-HIT BRET: ALCAM/Venus + β-arrestin2/Rluc8 ± untagged AT1, after AngII
T2 construct: also called mouse ALCAM/Venus; not shown: Venus, a variant of green fluorescent protein
T2 sequence: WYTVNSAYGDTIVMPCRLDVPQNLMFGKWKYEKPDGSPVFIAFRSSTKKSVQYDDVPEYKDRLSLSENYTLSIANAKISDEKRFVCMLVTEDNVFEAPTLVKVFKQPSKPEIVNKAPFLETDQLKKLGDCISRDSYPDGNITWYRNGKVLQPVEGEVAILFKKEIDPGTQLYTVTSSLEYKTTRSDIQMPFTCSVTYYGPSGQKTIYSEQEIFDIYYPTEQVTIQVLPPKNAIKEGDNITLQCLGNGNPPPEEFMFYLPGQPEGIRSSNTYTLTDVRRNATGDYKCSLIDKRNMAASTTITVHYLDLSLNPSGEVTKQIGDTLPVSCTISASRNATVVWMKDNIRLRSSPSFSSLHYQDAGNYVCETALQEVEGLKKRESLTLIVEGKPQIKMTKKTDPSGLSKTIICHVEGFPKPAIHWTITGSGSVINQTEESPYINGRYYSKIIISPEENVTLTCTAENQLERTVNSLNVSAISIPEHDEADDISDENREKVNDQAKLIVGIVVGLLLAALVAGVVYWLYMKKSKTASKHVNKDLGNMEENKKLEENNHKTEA
Protocol: as §1, §2

human ALCAM/Rluc8 = biological target: T3, human ALCAM/Rluc8 (human, UniProt Q13740 28-583); test: Receptor-HIT BRET: ALCAM/Rluc8 + β-arrestin2/Venus ± untagged AT1, after AngII
T3 construct: also called ALCAM/Rluc8 (human ALCAM); not shown: Rluc8, a variant of Renilla luciferase
T3 sequence: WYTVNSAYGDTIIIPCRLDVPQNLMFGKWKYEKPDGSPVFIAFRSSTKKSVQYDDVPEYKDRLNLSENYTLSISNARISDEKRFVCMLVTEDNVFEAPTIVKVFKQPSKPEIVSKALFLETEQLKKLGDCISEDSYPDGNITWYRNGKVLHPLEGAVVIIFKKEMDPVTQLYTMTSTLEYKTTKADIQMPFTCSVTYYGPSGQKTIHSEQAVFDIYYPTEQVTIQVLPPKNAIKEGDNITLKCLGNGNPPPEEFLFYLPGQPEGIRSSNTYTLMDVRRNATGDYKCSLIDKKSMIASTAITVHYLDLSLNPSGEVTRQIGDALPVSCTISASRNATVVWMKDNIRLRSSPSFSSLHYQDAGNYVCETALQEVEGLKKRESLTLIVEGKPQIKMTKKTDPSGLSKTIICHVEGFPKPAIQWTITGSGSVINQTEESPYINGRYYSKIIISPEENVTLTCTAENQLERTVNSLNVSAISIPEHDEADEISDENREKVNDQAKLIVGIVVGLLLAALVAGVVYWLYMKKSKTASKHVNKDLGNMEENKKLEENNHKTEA
Protocol: as §1, §2

mouse ALCAM/Rluc8 = biological target: T4, mouse ALCAM/Rluc8 (mouse, UniProt Q61490 28-583); test: as above
T4 construct: also called ALCAM/Rluc8 (mouse ALCAM); not shown: Rluc8, a variant of Renilla luciferase
T4 sequence: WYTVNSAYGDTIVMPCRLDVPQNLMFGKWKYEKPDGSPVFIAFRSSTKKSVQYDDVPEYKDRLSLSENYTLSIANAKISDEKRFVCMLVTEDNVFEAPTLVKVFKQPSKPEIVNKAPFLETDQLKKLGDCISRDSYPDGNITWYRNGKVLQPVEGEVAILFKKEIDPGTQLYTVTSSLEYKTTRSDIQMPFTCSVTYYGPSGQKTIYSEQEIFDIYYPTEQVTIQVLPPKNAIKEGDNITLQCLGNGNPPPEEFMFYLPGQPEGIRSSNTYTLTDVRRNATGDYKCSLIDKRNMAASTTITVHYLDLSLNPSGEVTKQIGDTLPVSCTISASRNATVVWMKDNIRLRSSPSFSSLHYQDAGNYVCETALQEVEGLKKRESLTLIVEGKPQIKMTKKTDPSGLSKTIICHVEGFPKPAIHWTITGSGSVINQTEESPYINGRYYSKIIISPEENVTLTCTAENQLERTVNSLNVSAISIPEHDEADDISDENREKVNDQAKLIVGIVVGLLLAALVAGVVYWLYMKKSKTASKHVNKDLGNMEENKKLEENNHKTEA
Protocol: as §1, §2

[3] = biological target: T5, Venus-labelled CADM4 (CADM4/Venus) (UniProt Q8NFZ8 21-388); test: Receptor-HIT BRET: CADM4/Venus + β-arrestin2/Rluc8 ± untagged AT1, after AngII
T5 construct: whole, on cells; not shown: Venus, a variant of green fluorescent protein
T5 sequence (looked up): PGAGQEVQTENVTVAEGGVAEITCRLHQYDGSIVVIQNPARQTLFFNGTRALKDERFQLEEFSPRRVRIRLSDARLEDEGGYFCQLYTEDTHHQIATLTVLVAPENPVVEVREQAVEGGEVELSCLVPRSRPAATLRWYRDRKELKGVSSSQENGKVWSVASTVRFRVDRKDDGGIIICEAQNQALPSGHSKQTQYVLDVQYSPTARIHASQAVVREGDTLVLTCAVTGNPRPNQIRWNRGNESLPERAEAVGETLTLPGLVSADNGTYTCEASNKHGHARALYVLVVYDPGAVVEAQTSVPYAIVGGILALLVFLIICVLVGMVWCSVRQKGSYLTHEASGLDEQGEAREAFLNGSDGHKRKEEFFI
Protocol: as §1, §2

- binding result [1]: binds
- binding result [2]: binds
- binding result (human ALCAM/Rluc8): binds
- binding result (mouse ALCAM/Rluc8): binds
- binding result [3]: binds
B1: AT1 (untagged, co-expressed in HEK293FT cells) (receptor, UniProt P30556 1-359, looked up)
chain: MILNSSTEDGIKRIQDDCPKAGRHNYIFVMIPTLYSIIFVVGIFGNSLVVIVIYFYMKLKTVASVFLLNLALADLCFLLTLPLWAVYTAMEYRWPFGNYLCKIASASVSFNLYASVFLLTCLSIDRYLAIVHPMKSRLRRTMLVAKVTCIIIWLLAGLASLPAIIHRNVFFIENTNITVCAFHYESQNSTLPIGLGLTKNILGFLFPFLIILTSYTLIWKALKKAYEIQKNKPRNDDIFKIIMAIVLFFFFSWIPHQIFTFLDVLIQLGIIRDCRIADIVDTAMPITICIAYFNNCLNPLFYGFLGKKFKRYFLQLLKYIPPKAKSHSNLSTKMSTLSYRPSDNVSSSTKKPAPCFEVE
notes: whole, on cells; Untagged with respect to BRET (Receptor-HIT assays); also called Angiotensin II receptor 1
